The assay addresses T1, K3GW (acetylated N-terminus).
T1 peptide: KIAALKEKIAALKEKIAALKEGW
Description: ITC. In general terms: Isothermal titration calorimetry measures the heat released or taken up as one component is titrated into another.

Where no end group is shown, it is not given here.

B1: E3GY (peptide)
peptide: Ac-EIAALEKEIAALEKEIAALEKGY
Broadly, the Kd is the free concentration of one partner at which half of the binding sites on the other are occupied at equilibrium, for simple one-to-one binding. Higher therefore signals weaker binding. Molecule B1 registered a Kd of 73 nM and a dH of -18.4 kcal/mol.

These data come from publication PMC7086394 (Bioconjugate Chemistry, 2020).
